Reference: patent publication US7812117B2, “Vasostatin as marrow protectant” (The United States of America as represented by the …, priority 1998, dated 2010)

How the values were obtained:
murine bone marrow cells [1] = assay: Murine bone marrow cell proliferation in vitro ([3H] thymidine incorporation)
[2] = system: CD34- mononuclear cell population; assay: Proliferation of negatively selected human CD34- mononuclear cells; assay type: cell-based; conditions: Stem Cell Factor and Flt-3 ligand alone or in conjunction with vaso
Method: (§1) The purified human CD34+ cells along with the negatively selected CD34− mononuclear cell population were cultured in RPMI 1640 medium containing 15% FBS. Human Stem Cell Factor (300 ng/ml) and Flt-3 ligand (300 ng/ml) were added to the culture medium. […] Thus, purified hematopoietic cells from both mouse and man proliferate in response to vaso.

murine bone marrow cells [3] = assay: Murine bone marrow cell number in culture (Owen's reagent formazan absorbance at 490 nm); assay type: cell-based, mouse
Method: FIG. 7 is a series of bar graphs showing the effects of vaso on growth-factor induced proliferation of bone marrow cells with or without methotrexate. Bone marrow cells populations, obtained from the femural cavities of C57BL/6NCR mice (3.5 months of age), were cultured in 24 well tissue culture plates in culture medium alone or medium containing a mixture of the growth factors (GF) IL-3 (20 ng/ml), IL-6 (100 ng/ml) and Stem Cell Factor (100 ng/ml). Vaso was added to the cultures at concentrations ranging between 1.25 and 10 μg/ml. Methotrexate was added to the cultures at the concentration of 100 nM. FIG. 7A is a bar graph of cell proliferation as measured by ^3H thymidine incorporation during the final 22 hr of a 7-day culture. The results reflect the mean cpm of triplicate cultures. FIG. 7B is a bar graph of cell numbers measured as mean absorbance (490 nM) after conversion of Owen's reagent into colored formazan product (One Solution Reagent, Promega).
FIG. 9 is a series of bar graphs showing that vaso increases bone marrow cell proliferation in vitro. Bone marrow cells populations, obtained from the femural cavities of C57BL/6NCR mice (8 weeks of age), were cultured in culture medium alone or in medium supplemented with a mixture of IL-3 (20 ng/ml), IL-6 (100 ng/ml) and Stem Cell Factor (SF, 100 ng/ml). […] FIG. 9A is a bar graph of cell proliferation as measured by ^3H thymidine incorporation during the final 20-23 hr of a 4, 5 or 6-day culture. FIG. 9B is a bar graph of cell number measured as absorbance (490 nM) after conversion of Owen's reagent into colored formazan product (One Solution Reagent, Promega).
In the absence of exogenously added growth factors, vaso at the highest concentration used (10 μg/ml) had low level stimulatory effect (approximately 2-fold stimulation of background cpm).
Stimulation of bone marrow cell proliferation by vaso was associated with an increased number of bone marrow cells, measured as absorbance from the conversion of Owen's reagent into a colored formazan product (One Solution Reagent, Promega, Madison. Wis.). […]

human CD34+ cells = assay: Proliferation of purified human peripheral blood CD34+ cells; assay type: cell-based
Method: FIG. 12 is a bar graph of the proliferative responses of human CD34-positive cells to vaso. Human CD34-positive cells purified (>90% purity) from the peripheral blood of a normal individual after G-CSF mobilization following standard procedures were cultured (1×10^6 cells/ml) in 24 well tissue culture plates in RPMI 1640 medium supplemented with 15% FBS. […] Vaso was added at 10 μg/ml. Cell proliferation was measured during the final 22 hr of a 5, 6 or 9 day culture by ^3H thymidine incorporation. Data is shown as the mean of triplicate cultures.
To this end, CD34+ cells were purified to a high degree of homogeneity (>90% purity) from the peripheral blood of normal donors, according to established protocols (Mavroudis et al. Bone Marrow Transplant 21:431-40, 1998).
as §1
Vaso, calreticulin fragment 103-163, calreticulin fragment 120-146, and calreticulin fragment 128-146 (all used at 10 μg/ml) were tested in side-by-side assays for their ability to stimulate murine bone marrow hematopoietic cells in the presence of IL-3 (20 ng/ml). […]

[4] = vaso 10 μg/ml in the presence of growth factors

B1: vaso: N-terminal domain of calreticulin (amino acids 1-180, SEQ ID NO:3); given as fusion protein with maltose binding protein, MBP-vaso (protein)
chain: EPAVYFKEQFLDGDGWTSRWIESKHKSDFGKFVLSSGKFYGDEEKDKGLQTSQDARFYALSASFEPFSNKGQTLVVQFTVKHEQNIDCGGGYVKLFPNSLDQTDMHGDSEYNIMFGPDICGPGTKKVHVIFNYKGKNVLINKDIRCKDDEFTHLYTLIVRPDNTYEVKIDNSQVESGSLE
modifications: Vasostatin
For B1, the “murine bone marrow cell proliferation with or without cisplatinum” value (murine bone marrow cells [1]; Vaso 10 μg/ml, IL-3 (30 μg/ml), cisplatinum between 5 and 0.02 nM) was “enhanced murine bone marrow cell proliferation”, the “growth of murine hematopoietic cells after 5 or 6 days of culture” value (murine bone marrow cells [1]; all used at 10 μg/ml, IL-3 20 ng/ml) was “stimulated the growth” and the “bone marrow cell proliferation vs growth factors alone” value (murine bone marrow cells [1]; day 5, vaso 12.5-50 μg/ml added to IL-3 plus IL-6 plus Stem Cell Factor) was 21-54 fold. For the same molecule, the “mafosfamide concentrations at which growth stimulatory effect of vaso was appreciable” value (murine bone marrow cells [1]; mafosfamide added after 3 days of culture) was no more than 8 µg/mL, the “increase in cell proliferation on day 5” value (murine bone marrow cells [1]; unseparated marrow, vaso 10 μg/ml, IL-3 20 ng/ml) was 3.4 fold and the “direct stimulation of bone marrow cell proliferation” value (murine bone marrow cells [1]; vaso 10 μg/ml in medium alone, no growth factors) was “failed to directly stimulate”. The “promotion of bone marrow cell proliferation on day 5” value (murine bone marrow cells [1]; [4]) was 39 fold, the “promotion of bone marrow cell proliferation on day 6” value (murine bone marrow cells [1]; [4]) was 17 fold and the “promotion of bone marrow cell proliferation on day 4” value (murine bone marrow cells [1]; vaso 10 μg/ml in the presence of growth factors (IL-3, IL-6, stem cell factor)) was 6.5 fold. The “stimulation of background cpm” value (murine bone marrow cells [1]; vaso 10 μg/ml, absence of exogenously added growth factors, 7 day culture) was “approximately 2 fold”, the “promotion of bone marrow cell proliferation in the presence of Etoposide” value (murine bone marrow cells [1]; vaso 10 μg/ml, Etoposide 77 nM, growth factors) was “to the same or greater degree than in the absence of Etoposide” and the “increase of IL-3-induced bone marrow proliferation in the presence of Etoposide” value (murine bone marrow cells [1]; vaso 10 μg/ml, Etoposide 385-15.4 nM, day 5) was “evident even in the presence of Etoposide”. For the same molecule, the “bone marrow cell proliferation induced by IL-3, day 5” value (murine bone marrow cells [1]; vaso 10 μg/ml, IL-3 20 ng/ml) was “enhanced bone marrow cell proliferation”, the “enhancement of IL-3 induced response on day 4” value (murine bone marrow cells [1]; vaso 10 μg/ml, IL-3 20 ng/ml) was “approximately 3 fold” and the “enhancement of proliferative response on day 5 or 6” value (murine bone marrow cells [1]; vaso 10 μg/ml, IL-3 or combination of IL-3, IL-6 and Stem Cell Factor) was 7-16 fold. The “proliferative response on day 3” value (murine bone marrow cells [1]; vaso 10 μg/ml, combination of IL-3, IL-6 and Stem Cell Factor) was “enhanced the response induced by the combination of IL-3, IL-6 and Stem Cell Factor slightly”, the “proliferation of bone marrow cells exposed to mafosfamide” value (murine bone marrow cells [1]; vaso 12.5 μg/ml, growth factors, 6 days culture) was “markedly enhanced” and the “bone marrow cell proliferation in the presence of methotrexate” value (murine bone marrow cells [1]; vaso 0.25-10 μg/ml, methotrexate 100 nM and growth factors, 7 day culture) was “dose-dependently stimulated”. The “proliferation of CD34- cell population” value [2] was “proliferated minimally”, the “number of cells in culture” value (murine bone marrow cells [3]; vaso 10 μg/ml added to medium alone) was “increased only minimally” and the “number of cells counted after 5 days of culture” value (murine bone marrow cells [3]; vaso 10 μg/ml, growth factors (IL-3, IL-6 and Stem Cell Factor) either alone or with etoposide 77 nM) was “increased significantly”. For the same molecule, the “number of living bone marrow cells in culture” value (murine bone marrow cells [3]; vaso with methotrexate 100 nM and growth factors) was “increase in the number of living bone marrow cells”, the “cell growth of purified human CD34+ peripheral blood cells” value (human CD34+ cells; IL-3 alone or IL-3 together with IL-6 and Stem Cell Factor) was “similarly stimulated cell growth” and the “proliferation of CD34+ cells” value (human CD34+ cells; vaso 10 μg/ml, Stem Cell Factor 300 ng/ml and Flt-3 ligand 300 ng/ml) was “responded with increased proliferation”.
